The text below walks through data of patent US20240174744A1 (SCIRHOM, published 2024).

The target of the assay is T1, hiR2-FL-I566E-T7 (human iRhom2 full length I566E, 3 x T7 tag) (human, UniProt Q6PJF5 1-856).
T1 sequence: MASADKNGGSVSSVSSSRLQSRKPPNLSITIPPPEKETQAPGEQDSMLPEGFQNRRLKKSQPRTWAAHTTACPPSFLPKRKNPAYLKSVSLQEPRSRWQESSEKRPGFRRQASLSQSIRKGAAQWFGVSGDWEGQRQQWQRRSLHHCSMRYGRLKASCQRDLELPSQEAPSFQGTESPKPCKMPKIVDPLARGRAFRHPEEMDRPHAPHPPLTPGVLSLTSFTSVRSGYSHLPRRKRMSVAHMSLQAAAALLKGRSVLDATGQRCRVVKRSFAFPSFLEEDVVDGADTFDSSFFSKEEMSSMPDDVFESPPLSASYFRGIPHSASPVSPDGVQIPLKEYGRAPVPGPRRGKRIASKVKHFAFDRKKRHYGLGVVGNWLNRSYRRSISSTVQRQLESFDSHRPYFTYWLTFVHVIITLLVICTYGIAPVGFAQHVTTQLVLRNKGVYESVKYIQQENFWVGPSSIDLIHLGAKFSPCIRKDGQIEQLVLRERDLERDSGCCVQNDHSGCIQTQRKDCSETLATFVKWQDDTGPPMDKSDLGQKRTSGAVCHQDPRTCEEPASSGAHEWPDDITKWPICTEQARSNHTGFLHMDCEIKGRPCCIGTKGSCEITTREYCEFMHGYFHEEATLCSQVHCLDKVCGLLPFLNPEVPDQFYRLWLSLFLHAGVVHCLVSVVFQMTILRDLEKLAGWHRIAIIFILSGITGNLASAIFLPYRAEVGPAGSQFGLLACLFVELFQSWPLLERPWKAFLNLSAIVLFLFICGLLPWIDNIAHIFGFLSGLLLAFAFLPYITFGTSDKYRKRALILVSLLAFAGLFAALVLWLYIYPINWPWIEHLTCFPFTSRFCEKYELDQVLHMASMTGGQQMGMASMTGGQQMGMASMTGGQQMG
In words: FACS on MEF-DKO-hiR2-FL-I566E-T7 cells.

B1: antibody 5 (antibody, V domains shown)
VH: QVTLKESGPGILQPSQTLSLTCSFSGFSLSTFGMGVGWIRQPSGKGLEWLAHIWWDDEKYYNSALKSRLTISKATSKNQAFLKIANVDTADTATYYCARISNYGSNYWYFNVWGTGTTVTVSS
VL: QVVLTQSPALMSASPGEKVTMTCSAGSSVSCMYWYQQKPGSSPRVLIYDTSNLASGVPARFTGSGSGTSYSLTISRMEAEDAASYYCQQWNSYPLTFGAGTKLELK
notes: Mouse IgG, kappa light chain; also called clone #5; purified antibody 5
Regarding B1, the binding result is recorded as “no binding (tested: 3 µg/ml)”.
